In US10428140B2, “Anti-EphA4 antibody” (EISAI R&D MANAGEMENT CO., LTD., priority 2015, dated 2019):
Changes are numbered by the printed parent chain.

T1: human EphA3 (Homo sapiens, UniProt P29320)
T1 construct: a protein of the extracellular region of each human Eph receptor fused with the SEAP protein and the His tag; made in house; host or cells: Expi293F cells (culture supernatant)
T1 sequence (P29320 21-541 limits assumed): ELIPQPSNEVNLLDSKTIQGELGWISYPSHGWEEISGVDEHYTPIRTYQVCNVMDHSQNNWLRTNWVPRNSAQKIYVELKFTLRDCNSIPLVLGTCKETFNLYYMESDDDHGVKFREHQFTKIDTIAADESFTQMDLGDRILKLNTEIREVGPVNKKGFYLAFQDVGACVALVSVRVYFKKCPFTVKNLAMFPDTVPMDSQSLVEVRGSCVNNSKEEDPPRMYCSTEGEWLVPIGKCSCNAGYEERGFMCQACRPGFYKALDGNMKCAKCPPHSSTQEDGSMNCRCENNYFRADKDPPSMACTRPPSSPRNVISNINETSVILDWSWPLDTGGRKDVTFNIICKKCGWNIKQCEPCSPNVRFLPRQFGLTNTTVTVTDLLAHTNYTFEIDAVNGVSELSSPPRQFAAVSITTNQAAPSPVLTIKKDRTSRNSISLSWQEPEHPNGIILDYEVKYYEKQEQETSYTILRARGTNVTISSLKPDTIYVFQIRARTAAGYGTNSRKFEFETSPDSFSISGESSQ

T2: human EphA7 (Homo sapiens, UniProt Q15375)
T2 construct: a protein of the extracellular region of each human Eph receptor fused with the SEAP protein and the His tag; made in house; host or cells: Expi293F cells (culture supernatant)
T2 sequence (Q15375 28-555 limits assumed): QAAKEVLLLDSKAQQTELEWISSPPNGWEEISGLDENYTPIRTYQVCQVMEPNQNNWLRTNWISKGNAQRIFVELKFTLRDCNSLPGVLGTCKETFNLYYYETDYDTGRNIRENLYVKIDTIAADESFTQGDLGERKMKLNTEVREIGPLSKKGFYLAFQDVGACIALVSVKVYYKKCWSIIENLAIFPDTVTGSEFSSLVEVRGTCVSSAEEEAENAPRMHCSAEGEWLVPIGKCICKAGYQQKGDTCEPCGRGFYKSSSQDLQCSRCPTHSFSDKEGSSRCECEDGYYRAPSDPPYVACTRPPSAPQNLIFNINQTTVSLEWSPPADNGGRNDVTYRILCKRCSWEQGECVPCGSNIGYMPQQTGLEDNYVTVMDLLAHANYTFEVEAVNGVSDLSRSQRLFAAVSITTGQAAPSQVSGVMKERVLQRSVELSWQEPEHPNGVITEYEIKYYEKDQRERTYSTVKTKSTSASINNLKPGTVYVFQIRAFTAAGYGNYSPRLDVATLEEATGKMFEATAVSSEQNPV

T3: human EphB3 (Homo sapiens, UniProt P54753)
T3 construct: a protein of the extracellular region of each human Eph receptor fused with the SEAP protein and the His tag; made in house; host or cells: Expi293F cells
T3 sequence (P54753 34-559 limits assumed): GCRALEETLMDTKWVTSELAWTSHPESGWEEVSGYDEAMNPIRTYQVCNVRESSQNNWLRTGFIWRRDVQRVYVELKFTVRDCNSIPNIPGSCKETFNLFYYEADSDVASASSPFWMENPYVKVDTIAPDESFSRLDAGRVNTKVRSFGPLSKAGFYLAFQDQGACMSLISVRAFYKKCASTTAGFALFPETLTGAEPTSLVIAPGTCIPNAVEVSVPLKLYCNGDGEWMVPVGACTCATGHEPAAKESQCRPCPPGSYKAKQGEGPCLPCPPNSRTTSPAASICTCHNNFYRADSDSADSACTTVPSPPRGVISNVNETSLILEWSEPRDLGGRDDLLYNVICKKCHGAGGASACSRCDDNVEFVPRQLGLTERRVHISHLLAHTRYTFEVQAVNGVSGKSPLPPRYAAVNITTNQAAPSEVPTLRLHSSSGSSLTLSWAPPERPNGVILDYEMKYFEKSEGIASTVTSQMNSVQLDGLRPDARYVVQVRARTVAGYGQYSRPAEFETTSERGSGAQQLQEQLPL

B1: 85 (antibody, V domains shown)
VL: DIQMTQSPSSLSASVGDRVTITCRASENIYRNLAWYQQKPGKAPKLLLYAATNLADGVPSRFSGSGSGTDYTLTISSLQSEDFATYYCQHFWGTPWTFGQGTKVEIK
VH: QVQLVQSGSELKKPGASVKVSCKASGYTFTDYSMHWVRQAPGQGLKWMGWINTETGEPTYADDFKGRFVFSLDTSVSTAYLQISSLKAEDTAVYYCARIPLYYYGSRYWYFDVWGQGTTVTVSS
modifications: constant regions without entry; synthetic humanized antibody light chain variable region sequence; synthetic humanized antibody heavy chain variable region sequence
B2: 88 (antibody, V domains shown)
VL: B1 VL with K45Q, S80P
VH: B1 VH with D62Q, D63G, K65T
modifications: constant regions without entry; synthetic humanized antibody light chain variable region sequence; synthetic humanized antibody heavy chain variable region sequence
B3: 87 (antibody, V domains shown)
VL: B1 VL with K45Q, S80P
VH: B1 VH with K46E, D62Q, D63G, K65T
modifications: constant regions without entry; synthetic humanized antibody light chain variable region sequence; synthetic humanized antibody heavy chain variable region sequence
B4: 86 (antibody, V domains shown)
VL: B1 VL
VH: B1 VH with V2I
modifications: constant regions without entry; synthetic humanized antibody light chain variable region sequence; synthetic humanized antibody heavy chain variable region sequence
B5: 90 (antibody, V domains shown)
VL: B1 VL with K45Q, S80P
VH: B1 VH with K46E
modifications: constant regions without entry; synthetic humanized antibody light chain variable region sequence; synthetic humanized antibody heavy chain variable region sequence
B6: 91 (antibody, V domains shown)
VL: B1 VL with K45Q, S80P
VH: B1 VH
modifications: constant regions without entry; synthetic humanized antibody light chain variable region sequence; synthetic humanized antibody heavy chain variable region sequence
B7: 89 (antibody, V domains shown)
VL: B1 VL with K45Q, S80P
VH: B1 VH with V2I, D62Q, D63G, K65T
modifications: constant regions without entry; synthetic humanized antibody light chain variable region sequence; synthetic humanized antibody heavy chain variable region sequence

Each molecule was assayed against T4, human EphA5 (Homo sapiens, UniProt P54756) (assay: Selectivity ELISA of humanized antibodies for human Eph receptor). Conditions: coated protein 1 nM.
T4 construct: a protein of the extracellular region of each human Eph receptor fused with the SEAP protein and the His tag; made in house; host or cells: Expi293F cells (culture supernatant)
T4 sequence (P54756 25-573 limits assumed): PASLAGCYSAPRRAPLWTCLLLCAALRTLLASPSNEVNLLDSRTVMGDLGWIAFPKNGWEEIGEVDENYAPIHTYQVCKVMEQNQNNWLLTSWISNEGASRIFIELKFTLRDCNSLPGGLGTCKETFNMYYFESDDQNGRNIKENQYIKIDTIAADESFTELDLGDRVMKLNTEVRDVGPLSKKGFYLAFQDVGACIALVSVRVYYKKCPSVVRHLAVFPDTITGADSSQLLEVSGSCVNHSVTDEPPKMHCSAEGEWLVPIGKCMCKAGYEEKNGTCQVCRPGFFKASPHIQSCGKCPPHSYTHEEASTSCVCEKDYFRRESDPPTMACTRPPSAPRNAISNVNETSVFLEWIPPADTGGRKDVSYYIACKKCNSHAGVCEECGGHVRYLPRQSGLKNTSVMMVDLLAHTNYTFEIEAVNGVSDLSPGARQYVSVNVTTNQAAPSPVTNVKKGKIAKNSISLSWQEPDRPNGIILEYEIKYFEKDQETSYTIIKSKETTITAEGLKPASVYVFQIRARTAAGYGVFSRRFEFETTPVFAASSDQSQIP
Type: binding
Excerpt: (§1) According to the method described in Example 7, a DNA sequence encoding the signal sequence and the extracellular region of each human Eph receptor (EphA1, EphA2, EphA3, EphA4, EphA5, EphA6, EphA7, EphA8, EphA10, EphB1, EphB2, EphB3, EphB4, and EphB6) was amplified by RT-PCR using tissue-derived total RNA and cloned into a pENTR1A vector (Invitrogen/Life Technologies) having a DNA sequence encoding SEAP protein and histidine tag. Next, the DNA sequence encoding the signal sequence and the extracellular region of each human Eph receptor, SEAP protein, and histidine tag was transferred to a pcDNA3.1_rfcB vector through LR reaction using Gateway System (Invitrogen/Life Technologies) to construct a vector for the expression of a protein of the extracellular region of each human Eph receptor fused with the SEAP protein and the His tag (referred to as “Eph receptor extracellular region-SEAP-His protein”) (this vector is referred to as “Eph receptor extracellular region-SEAP-His protein expression vector”).
(§2) Next, each human Eph receptor extracellular region-SEAP-His protein expression vector was transferred to Expi293F cells (Gibco/Thermo Fisher Scientific) using Expi293 expression system (Gibco/Thermo Fisher Scientific). After incubation (5% CO2, 37° C.) for 5 days, the culture supernatant was recovered and centrifuged at 1500 rpm at room temperature for 5 minutes. The centrifugation supernatant was filtered through a 0.45-μm filter (Merck Millipore).
(§3) Each anti-EphA4 monoclonal humanized antibody obtained in Example 16 was evaluated for its binding activity against each human Eph receptor according to the following steps.
(§4) Each well of a 96-well plate (Nunc) was coated with a rabbit anti-6-His antibody (Bethyl Laboratories). Each well was […] After washing with 0.05% Tween 20/PBS (Nacalai Tesque) three times, the SEAP-His protein of human EphA1, EphA2, EphA3, EphA4, EphA5, EphA6, EphA7, EphA8, EphA10, EphB1, EphB2, EphB3, EphB4, or EphB6 was added (final concentration: 1 nM) to each well and incubated at room temperature for 1 hour. After washing three times, the humanized antibody was added to each well and incubated at room temperature for 1 hour. After washing three times, a horseradish peroxidase-labeled donkey […] IgG antibody (Jackson ImmunoResearch Laboratories) was added thereto and incubated at room temperature for 1 hour. After washing three times, TMB Microwell Peroxidase Substrate System (Kirkegaard & Perry Laboratories (KPL)) was added to each well. After confirmation of moderate color development, an equal amount of a reaction stopping solution (1N H2SO4, Wako Pure Chemical Industries) was added to each well. The absorbance at 450 nm was read using a microplate reader (Thermo Fisher Scientific).

| hEphA5-SEAP-: absorbance at 450 nm, percentage with respect to hEphA4-SEAP-His as 100% [%] | Molecule |
| --- | --- |
| 5.0 | B1 |
| 5.9 | B2 |
| 5.4 | B3 |
| 5.7 | B4 |
| 5.1 | B5 |
| 6.4 | B6 |
| 5.8 | B7 |

Each molecule was assayed against T1, human EphA3 in the same assay as above. Conditions: coated protein 1 nM.
Type: binding
Excerpt: as §1, §2, §3, §4

| hEphA3-SEAP-: absorbance at 450 nm, percentage with respect to hEphA4-SEAP-His as 100% [%] | Molecule |
| --- | --- |
| 5.1 | B1 |
| 6.0 | B2 |
| 5.5 | B3 |
| 5.8 | B4 |
| 5.2 | B5 |
| 6.6 | B6 |
| 5.8 | B7 |

Each molecule was assayed against SEAP-His (Homo sapiens, UniProt P05187) in the same assay as above. Conditions: coated protein 1 nM.
Chain of SEAP-His (P05187 23-511 limits assumed): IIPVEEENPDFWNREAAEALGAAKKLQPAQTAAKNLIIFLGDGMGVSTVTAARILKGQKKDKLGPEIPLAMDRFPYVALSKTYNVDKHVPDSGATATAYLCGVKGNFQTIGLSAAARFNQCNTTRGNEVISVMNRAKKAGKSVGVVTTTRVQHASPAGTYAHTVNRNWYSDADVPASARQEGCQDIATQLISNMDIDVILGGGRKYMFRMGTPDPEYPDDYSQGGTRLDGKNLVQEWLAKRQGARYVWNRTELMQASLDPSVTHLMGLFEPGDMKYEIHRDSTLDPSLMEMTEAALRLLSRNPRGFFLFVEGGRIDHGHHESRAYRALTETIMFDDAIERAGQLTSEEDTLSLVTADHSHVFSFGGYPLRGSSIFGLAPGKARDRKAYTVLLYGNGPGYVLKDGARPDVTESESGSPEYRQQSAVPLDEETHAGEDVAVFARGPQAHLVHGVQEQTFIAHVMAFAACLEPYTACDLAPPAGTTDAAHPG
Type: binding
Excerpt: as §1, §2, §3, §4

| SEAP-His: absorbance at 450 nm, percentage with respect to hEphA4-SEAP-His as 100% [%] | Molecule |
| --- | --- |
| 5.3 | B1 |
| 6.1 | B2 |
| 5.5 | B3 |
| 6.1 | B4 |
| 5.2 | B5 |
| 6.4 | B6 |
| 5.8 | B7 |

Each molecule was assayed against T2, human EphA7 in the same assay as above. Conditions: coated protein 1 nM.
Type: binding
Excerpt: as §1, §2, §3, §4

| hEphA7-SEAP-: absorbance at 450 nm, percentage with respect to hEphA4-SEAP-His as 100% [%] | Molecule |
| --- | --- |
| 4.8 | B1 |
| 6.0 | B2 |
| 5.3 | B3 |
| 5.6 | B4 |
| 4.9 | B5 |
| 5.6 | B6 |
| 5.4 | B7 |

Each molecule was assayed against T3, human EphB3 in the same assay as above. Conditions: coated protein 1 nM.
Type: binding
Excerpt: as §1, §2, §3, §4

| hEphB3-SEAP-: absorbance at 450 nm, percentage with respect to hEphA4-SEAP-His as 100% [%] | Molecule |
| --- | --- |
| 5.2 | B1 |
| 6.3 | B2 |
| 5.5 | B3 |
| 5.9 | B4 |
| 5.1 | B5 |
| 7.0 | B6 |
| 5.7 | B7 |
